Measurements published in US6541002.

Target: Vpr-Gal4AD chimeric protein (UniProt P12520)

Substance: UDG-Gal4BD chimeric protein UDG W222G
- beta-galactosidase activity, liquid culture of double transformant yeast, relative to wild type UDG-Gal4BD: exhibited less than half (43%) of the ability to interact with Vpr-Gal4AD chimeric protein

Substance: UDG-Gal4BD chimeric protein UDG F225G
- beta-galactosidase activity, liquid culture of double transformant yeast, relative to wild type UDG-Gal4BD: exhibited only 7% of the ability to interact with Vpr-Gal4AD chimeric protein
